Experimental data taken from publication PMC6753139, “TRIM66 reads unmodified H3R2K4 and H3K56ac to respond to DNA damage in embryonic stem cells” (Nature Communications, 2019).
“Also recorded” adds a separate entry of the source.

Key:
[1] = biological target: T1, TRIM66-WT965-1160 (Homo sapiens, UniProt O15016); assay: ITC, PHD-Bromodomain wild type; format: binding; conditions: ITC, 25 °C, pH 7.5
T1 construct: ITC titration: titrating TRIM66-WT965-1160 with various histone H3 peptides; GST (N, cleaved yes); made in house; host or cells: Escherichia coli BL21 (DE3)
T1 sequence (O15016 1100-1295): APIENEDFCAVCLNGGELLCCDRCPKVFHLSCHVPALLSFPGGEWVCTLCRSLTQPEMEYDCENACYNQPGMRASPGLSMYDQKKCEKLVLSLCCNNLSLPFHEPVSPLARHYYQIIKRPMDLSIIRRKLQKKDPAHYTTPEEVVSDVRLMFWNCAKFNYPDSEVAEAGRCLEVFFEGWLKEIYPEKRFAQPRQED
Excerpt: We next performed the glutathione S-transferase (GST) pulldown assays of the TRIM66-WT965-1160 against the calf thymus histones to verify the histone-binding ability of TRIM66 PHD-Bromodomain. […] The PHD of TRIM66 shared a low conservation with those of ING4, PHF2, and BPTF, and lacked the conserved aromatic residues, which were necessary for binding H3K4me2/3[40]–[42] (Supplementary Fig. 2b). Nevertheless, TRIM66 was highly conserved in sequence and structure with the PHDs of TRIM24 and TRIM33 (Fig. 1c and Supplementary Fig. 2b), which were reported to bind H3K4me0[5],[6]; thus, we speculated that the PHD of TRIM66 could bind H3K4me0. To verify this hypothesis, we performed isothermal titration calorimetry (ITC)-based binding assays. […] Based on previous researches reporting the acetyl-lysine binding partners of Bromodomain[3]–[12], we chose a series of related peptides derived from H3 and H4, to test their interactions with TRIM66-WT965-1160 by ITC experiments. […] We further found the acetylated state of K56 was necessary for this binding (Supplementary Fig. 3b).
We next titrated the TRIM66-WT965-1160 with a series of R2-methylated H3 peptides through ITC assays. […] This finding was consistent with the structural observation that each NηH atom of the R2 formed a hydrogen bond with residues in protein (Fig. 2d).
The DNA fragments of human TRIM66_968-1160, TRIM24_824-1006, and TRIM33_882-1087 were amplified from a human bone marrow cDNA library using a PCR-based cloning strategy. The fragments of TRIM66-WT968-1160 were inserted into a pGEX-4T-1 plasmid (GE Healthcare). The fragments of TRIM24_824-1006 and TRIM33_882-1087 were ligated into a pET-SUMO-28a (+) plasmid (Novagen). The DNA fragments of TRIM66-MUT968-1160 and TRIM66-WT965-1160 with codon optimization were synthesized by General Biosystems (sequence was shown in Supplementary Methods) and inserted into a pGEXT-4T-1 plasmid (GE Healthcare). Mutants of TRIM66 PHD-Bromo were generated through PCR using the Mutant Best kit (Takara). The mutation of point mutant based on the codon-optimized DNA sequence of TRIM66-WT965-1160. All constructs were expressed in Escherichia coli BL21 (DE3). The construct of ASF1a1-156 inserted into a pRSFDuet plasmid (courtesy of Ruiming Xu Lab, Institute of Biophysics, Chinese Academy of Sciences) was expressed in E. coli BL21 (DE3) RIL. The construct of full-length H4 inserted into a pET3a plasmid was expressed in E. coli BL21 (DE3). The expression of full-length histone H3K56ac was performed in BL21 (DE3) cells transformed with pBK-AxcKRS3 and pET22b encoding H3 with amber codons at the K56 site[12]. The DNA fragment of full-length TRIM66 was synthesized by General Biosystems and ligated into fugw vector (Addgene). See the information of protein sequence in Supplementary Table 1.
(§1) The calorimetric experiments were performed at 25 °C using a MicroCal PEAQ-ITC. The proteins were dialyzed using a buffer containing 20 mM Tris and 100 mM NaCl at pH 7.5. Lyophilized peptides were dissolved in the same buffer and adjusted to pH 7.5 prior to use. Peptide concentrations were estimated from the quantitative NMR experiments[73],[74]. ITC measurements were performed via injection of 0.7–4 mM peptide into a cell containing 0.12 mM TRIM24-PHD-Bromo, 0.05 mM TRIM33 PHD-Bromo, and 0.05 or 0.11–0.15 mM TRIM66-PHD-Bromo (or its mutants). The ITC data were subsequently analyzed using the MicroCal PEAQ-ITC analysis software.

[2] = biological target: T2, TRIM66-GSGS968-1160 (Homo sapiens, UniProt O15016, A1173S/DEL1165-1171/P1175S/R1172G/S1174G); assay: ITC, NMR mutant protein; format: binding; conditions: 25 °C, 20 mM Tris, 100 mM NaCl, pH 7.5, single measurement
T2 construct: We created a mutant protein (termed TRIM66-GSGS968-1160;); GST (N, cleaved yes); made in house; host or cells: Escherichia coli BL21 (DE3)
T2 sequence (O15016 with tags, fused parts or gaps DEL1165-1171/R1172G/A1173S/S1174G/P1175S): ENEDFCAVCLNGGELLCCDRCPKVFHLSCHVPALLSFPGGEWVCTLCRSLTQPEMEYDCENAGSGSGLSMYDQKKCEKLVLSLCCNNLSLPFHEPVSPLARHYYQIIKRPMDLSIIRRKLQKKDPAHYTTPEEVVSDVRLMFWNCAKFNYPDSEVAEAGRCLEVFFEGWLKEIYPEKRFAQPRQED
Method: To investigate the interaction between the H3K56ac peptide and the TRIM66 PHD-Bromodomain, we performed a nuclear magnetic resonance (NMR) titration experiment. We created a mutant protein (termed TRIM66-GSGS968-1160; Supplementary Fig. 1e, Supplementary Fig. 7a, b, Supplementary Table 1, and Supplementary Note 2).
as §1, with “software. […]” for “software.”
protein (TRIM66-WT965-1160) in all the ITC and GST pull down interaction assays. Meanwhile, the […]
experiments and crystal experiment, respectively. […]
combinational manner (Fig. 1d). To further figure out the binding mode between the TRIM66 PHD-Bromodomain and the united H3(1-15)-(48-57) K56ac peptide, we performed a NMR titration experiment and carefully analyzed the linewidth changes of TRIM66 -GSGS968-1160 (this protein is […]

[3] = biological target: T3, TRIM24_824-1006 (Homo sapiens, UniProt O15164); assay: ITC, PHD-Bromodomain; conditions: 25 °C, 20 mM Tris, 100 mM NaCl, pH 7.5, single measurement, error from curve fit, Weak binding = ITC curves cannot be fitted reliably
T3 construct: The fragments of TRIM24_824-1006 and TRIM33_882-1087 were ligated into a pET-SUMO-28a (+) plasmid; His-SUMO (N, cleaved yes); made in house; host or cells: Escherichia coli BL21 (DE3)
T3 sequence (O15164 824-1006): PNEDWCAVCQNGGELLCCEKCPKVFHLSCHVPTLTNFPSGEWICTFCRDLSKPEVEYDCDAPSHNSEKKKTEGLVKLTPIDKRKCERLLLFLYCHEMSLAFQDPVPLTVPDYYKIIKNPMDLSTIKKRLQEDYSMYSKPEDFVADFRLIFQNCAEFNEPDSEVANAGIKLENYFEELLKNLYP
Excerpt: (§2) We subsequently compared the complex structure of TRIM24, TRIM33, and TRIM66 with H3 peptide. […] (Fig. 2d). […] However, they were sensitive to H3R2me2s (Table 2, Supplementary Fig. 5b, c, and Supplementary Table 2).
(§3) The DNA fragments of human TRIM66_968-1160, TRIM24_824-1006, and TRIM33_882-1087 were amplified from a human bone marrow cDNA library using a PCR-based cloning strategy. The fragments of TRIM66-WT968-1160 were inserted into a pGEX-4T-1 plasmid (GE Healthcare). The fragments of TRIM24_824-1006 and TRIM33_882-1087 were ligated into a pET-SUMO-28a (+) plasmid (Novagen). The DNA fragments of TRIM66-MUT968-1160 and TRIM66-WT965-1160 with codon optimization were synthesized by General Biosystems (sequence was shown in Supplementary Methods) and inserted into a pGEXT-4T-1 plasmid (GE Healthcare). Mutants of TRIM66 PHD-Bromo were generated through PCR using the Mutant Best kit (Takara). The mutation of point mutant based on the codon-optimized DNA sequence of TRIM66-WT965-1160. All constructs were expressed in Escherichia coli BL21 (DE3). […]
(§4) The calorimetric experiments were performed at 25 °C using a MicroCal PEAQ-ITC. […] Peptide concentrations were estimated from the quantitative NMR experiments[73],[74]. […] The ITC data were subsequently analyzed using the MicroCal PEAQ-ITC analysis software.

[4] = biological target: T4, TRIM33_882-1087 (Homo sapiens, UniProt Q9UPN9); assay: ITC, PHD-Bromodomain; conditions: 25 °C, 20 mM Tris, 100 mM NaCl, pH 7.5, single measurement, error from curve fit, Weak binding = ITC curves cannot be fitted reliably
T4 construct: The fragments of TRIM24_824-1006 and TRIM33_882-1087 were ligated into a pET-SUMO-28a (+) plasmid; His-SUMO (N, cleaved yes); made in house; host or cells: Escherichia coli BL21 (DE3)
T4 sequence (Q9UPN9 882-1087): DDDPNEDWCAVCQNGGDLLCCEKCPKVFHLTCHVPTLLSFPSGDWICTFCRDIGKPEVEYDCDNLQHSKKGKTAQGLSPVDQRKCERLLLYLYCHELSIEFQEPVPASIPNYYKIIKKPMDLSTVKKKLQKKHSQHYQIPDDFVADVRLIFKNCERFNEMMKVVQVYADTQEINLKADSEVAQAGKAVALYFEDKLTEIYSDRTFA
Excerpt: as §2, §3, §4

[5] = MicroCal PEAQ-ITC, 20 mM Tris, 100 mM NaCl, single measurement, error from curve fit, Weak binding = ITC curves cannot be fitted reliably, N.D. = no detectable binding

Row | Compound | Kd [1, 5] | Kd [2] | binding (in words) [1] | KD [1, 5] | KD [3] | KD [4]
1 | CC[C@H](C)[C@H](NC(=O)[C@H](CCC(=O)O)NC(=O)[C@H](CCCNC(=N)N)NC(=O)[C@@H](N)CC(C)C)C(=O)N[C@@H](CCCNC(=N)N)C(=O)N[C@@H](CCCNC(=N)N)C(=O)N[C@@H](Cc1ccc(O)cc1)C(=O)N[C@@H](CCC(N)=O)C(=O)N[C@@H](CCCCNC(C)=O)C(=O)N[C@@H](CO)C(=O)O [H3_48-57K56ac] | 109 µM | 127 ± 9.53 µM |  |  |  | 
2 | H3R2me2s: symmetrically dimethylated H3R2 peptide |  |  | obvious reduction in their binding affinities | Weak binding; also recorded: ^aWeak binding | Weak binding | Weak binding
